According to the supplement of paper PMC10567573:

B1: TRIM15 (parent)
chain: LLARLRELEQQIWKERDEYITKVS
B2: TRIM39 (parent)
chain: YPCVLATEGFTSGRHYWEVEVGDK

Variants of: B1
Test: protein stability index of a GFP-peptide fusion (GPS, HEK-293T) (PSI 1-6); higher = more stable
Conditions: c terminus: a fixed tail appended
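Also: lentivirally expressed fusions sorted by FACS into six bins by GFP to DsRed ratio, PSI derived from sequencing read proportions per bin multiplied by bin number.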

| Variant | protein stability index |
| --- | --- |
| I12H | 1.8 |
| I12P | 1.77 |
| I12M | 3.6 |
| I12R | 2.21 |
| I12C | 1.42 |
| I12S | 1.35 |
| I12N | 1.24 |
| I12V | 1.65 |
| I12L | 1.67 |
| I12F | 2.15 |
| I12Y | 2.13 |
| I12W | 1.43 |
| I12D | 2.75 |
| I12E | 2.38 |
| I12Q | 2.34 |
| I12A | 1.88 |
| L5A | 1.91 |
| L5S | 3.44 |
| L5E | 2.96 |
| L5T | 2.44 |
| L5W | 1.34 |
| L5D | 2.44 |
| L5H | 2.72 |
| L5F | 2.17 |

| Variant | protein stability index |
| --- | --- |
| L5I | 2.98 |
| L5M | 1.83 |
| L5N | 2.43 |
| L5V | 2.95 |
| L5Y | 1.77 |
| L5P | 2.65 |
| L5G | 2.6 |
| L5R | 2.28 |
| L5Q | 2.64 |
| W13R | 1.77 |
| W13L | 1.71 |
| W13V | 1.96 |
| W13Y | 1.51 |
| W13P | 1.81 |
| W13F | 2.83 |
| W13C | 2.68 |
| W13T | 1.69 |
| W13S | 1.68 |
| W13Q | 2.46 |
| W13E | 2.03 |
| W13G | 2.31 |
| W13K | 2.24 |
| W13I | 1.32 |
| W13A | 1.52 |

| Variant | protein stability index |
| --- | --- |
| W13H | 1.37 |
| R4N | 1.58 |
| R4Y | 1.92 |
| R4G | 2.56 |
| R4Q | 1.74 |
| R4F | 1.73 |
| R4W | 2.67 |
| R4P | 1.6 |
| R4S | 1.78 |
| R4M | 2.36 |
| L8R | 1.44 |
| L8Y | 2.22 |
| L8T | 2.74 |
| L8C | 1.49 |
| L8A | 1.14 |
| L8W | 1.62 |
| L8E | 2.24 |
| L8N | 2.03 |
| L8I | 2.51 |
| L8H | 2.12 |
| L8V | 1.69 |
| L8D | 2.48 |
| L8G | 2.9 |
| L8S | 1.75 |

| Variant | protein stability index |
| --- | --- |
| L8K | 3.04 |
| L8P | 2.55 |
| A3V | 2.49 |
| A3L | 2 |
| A3Q | 1.9 |
| A3S | 1.69 |
| A3P | 1.99 |
| A3E | 3.27 |
| A3T | 2.2 |
| A3G | 1.44 |
| A3C | 2.64 |
| A3M | 2.34 |
| A3F | 2.9 |
| A3H | 1.46 |
| A3D | 2.18 |
| E7I | 1.03 |
| E7V | 3.16 |
| E7Q | 1.61 |
| E7N | 1.84 |
| E7Y | 3.38 |
| E7C | 2.53 |
| E7L | 2.97 |
| E7P | 2.57 |
| E7T | 3.56 |

| Variant | protein stability index |
| --- | --- |
| E7R | 1.07 |
| E7D | 1.6 |
| L2D | 2.55 |
| L2C | 1.6 |
| L2H | 2.13 |
| L2E | 1.38 |
| L2Y | 4.12 |
| L2G | 1.9 |
| L2N | 2.18 |
| L2Q | 1.22 |
| L2M | 1.49 |
| L2S | 2.34 |
| L2F | 1.67 |
| L2P | 3.13 |
| L2I | 1.65 |
| L2W | 2.23 |
| L2K | 1.25 |
| L2T | 2.56 |
| L2A | 2.12 |
| L2V | 1.74 |
| Q11P | 1.62 |
| Q11W | 1.08 |
| Q11E | 1.01 |
| Q11M | 1.08 |

| Variant | protein stability index |
| --- | --- |
| Q11D | 2.36 |
| Q11Y | 1.88 |
| Q11N | 1.68 |
| Q11A | 1.98 |
| Q11H | 1.98 |
| Q11S | 2.51 |
| Q11R | 2.29 |
| Q11G | 1.41 |
| Q11V | 2.12 |
| R6Q | 1.44 |
| R6C | 1.8 |
| R6E | 1.82 |
| R6K | 2.13 |
| R6V | 3.95 |
| R6T | 1.76 |
| R6S | 2.56 |
| R6D | 1.79 |
| R6P | 2.44 |
| R6H | 1.65 |
| E15Q | 1.47 |
| E15D | 2.08 |
| E15R | 1.05 |
| E15F | 2.15 |
| E15A | 1.28 |

| Variant | protein stability index |
| --- | --- |
| E15I | 1.42 |
| E15N | 1 |
| E15G | 1.18 |
| E15L | 2.15 |
| E9N | 1.94 |
| E9W | 1.69 |
| E9Q | 1.07 |
| E9K | 1.62 |
| E9C | 2.11 |
| E9I | 1.96 |
| E9H | 1.45 |
| E9Y | 1.59 |
| E9R | 2.22 |
| E9L | 1.8 |
| E9D | 3.17 |
| E9F | 3.06 |
| E9P | 2.29 |
| E9T | 3.38 |
| R16H | 1 |
| R16Q | 1.58 |
| R16C | 2 |
| R16A | 1.78 |
| R16K | 1.92 |
| R16M | 1.61 |

| Variant | protein stability index |
| --- | --- |
| R16L | 3.68 |
| R16E | 2 |
| R16Y | 2.13 |
| Q10K | 2.02 |
| Q10P | 1.4 |
| Q10E | 1.51 |
| Q10R | 2.02 |
| Q10I | 2.65 |
| Q10D | 2.21 |
| Q10M | 3.32 |
| Q10N | 2.35 |
| Q10T | 1.09 |
| Q10W | 3.11 |
| Q10F | 3.2 |
| Q10V | 2.31 |
| Q10G | 1.58 |
| Q10S | 1.18 |
| L1K | 2.05 |
| L1H | 2.19 |
| L1N | 3.22 |
| L1T | 1.63 |
| L1Y | 2.35 |
| L1G | 1.55 |
| L1A | 1.79 |

| Variant | protein stability index |
| --- | --- |
| L1D | 2.31 |
| L1Q | 2.83 |
| L1R | 1.87 |
| L1E | 2.2 |
| L1F | 1.55 |
| L1P | 2.37 |
| L1S | 2.12 |
| L1C | 1.84 |
| L1M | 1.03 |
| D17L | 1.04 |
| D17P | 1.86 |
| D17N | 1 |
| D17E | 1.78 |
| K14P | 2.2 |
| K14T | 2.85 |
| K14L | 2.06 |
| K14F | 1.68 |
| K14N | 1 |
| K14I | 2.26 |
| K14A | 1.24 |
| K14E | 1.05 |
| K14H | 1.67 |

Variants of: B2
Test: as above
Conditions: c terminus: a fixed tail appended

| Variant | protein stability index |
| --- | --- |
| K24I | 2.65 |
| K24F | 2.23 |
| K24Y | 2.5 |
| K24S | 1.87 |
| K24L | 2.05 |
| K24D | 1.07 |
| K24A | 1.28 |
| K24V | 1.96 |
| K24H | 1.57 |
| K24E | 2.66 |
| K24R | 1.75 |
| K24N | 2.1 |
| K24M | 1.95 |
| K24G | 1.92 |
| K24P | 2.16 |
| K24T | 2.36 |
| K24C | 2.21 |
| K24W | 1.96 |
| K24Q | 1.7 |
| G22N | 1.91 |
| G22M | 1.58 |
| G22V | 1.82 |
| G22Q | 2.38 |
| G22T | 1.76 |

| Variant | protein stability index |
| --- | --- |
| G22A | 2.05 |
| G22F | 1.53 |
| G22P | 1.85 |
| G22D | 1.92 |
| G22K | 2.5 |
| G22C | 1.66 |
| G22Y | 1.98 |
| G22L | 1.81 |
| G22I | 1.67 |
| G22R | 1.75 |
| G22S | 2.19 |
| G22E | 1.88 |
| G22H | 1.95 |
| G22W | 2.37 |
| E18I | 1.89 |
| E18M | 1.51 |
| E18Q | 1.05 |
| E18W | 2.2 |
| E18P | 1.92 |
| E18S | 2.72 |
| E18K | 1.73 |
| E18N | 2.38 |
| E18Y | 2.71 |
| V21P | 1.43 |

| Variant | protein stability index |
| --- | --- |
| V21I | 2.24 |
| V21M | 1.9 |
| V21S | 1.88 |
| V21F | 1.95 |
| V21T | 1.6 |
| V21R | 2.05 |
| V21K | 2.15 |
| V21E | 1.77 |
| V21D | 2.2 |
| V21Q | 1.87 |
| V21N | 2.03 |
| V21A | 2.51 |
| V21H | 1.86 |
| V21L | 1.57 |
| V21G | 1.84 |
| V21W | 1.92 |
| V21Y | 2.14 |
| V19W | 2.21 |
| V19Q | 2.86 |
| V19C | 2.18 |
| V19R | 2.4 |
| V19P | 2.13 |
| V19E | 2.59 |
| V19N | 2.54 |

| Variant | protein stability index |
| --- | --- |
| V19S | 1.93 |
| V19A | 1.96 |
| V19F | 2.21 |
| V19Y | 2.64 |
| V19D | 3.18 |
| V19T | 1.41 |
| V19K | 2.98 |
| V19G | 2.6 |
| V19I | 2.19 |
| V19M | 2.63 |
| V19L | 2.35 |
| V19H | 2.85 |
| E20K | 2.4 |
| E20P | 1.57 |
| E20Y | 1.96 |
| E20F | 1.93 |
| E20C | 2.73 |
| E20M | 1.59 |
| E20A | 2.14 |
| E20I | 1.96 |
| E20W | 2.16 |
| E20D | 1.98 |
| E20Q | 1.51 |
| E20R | 3.35 |

| Variant | protein stability index |
| --- | --- |
| E20L | 2.32 |
| E20T | 2 |
| E20V | 2.31 |
| E20G | 3.06 |
| E20N | 2.06 |
| E20H | 1.58 |
| D23L | 2.51 |
| D23I | 1.76 |
| D23T | 2.32 |
| D23F | 1.58 |
| D23G | 1.82 |
| D23N | 3 |
| D23M | 1.57 |
| D23E | 1.85 |
| D23C | 1.71 |
| D23R | 1.45 |
| D23Y | 1.91 |
| D23V | 1.65 |
| D23H | 2.98 |
| D23A | 1.79 |
| D23K | 1.02 |
| D23P | 1.43 |
| D23S | 1.76 |
| D23Q | 2.44 |
